Source: the supplement of paper PMC12764529
± gives the half width of the 95% confidence interval.

Assays:
[1] = folding stability dG unfold from trypsin proteolysis; higher = more stable
How it was run: (§1)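 Only designs with AlphaFold2 dimer inter-PAE above 15 were retained; each was a mini-protein under 80 residues with no cysteine, in a PA-tagged cDNA display construct. After digestion with trypsin and chymotrypsin and sequencing, K50 was inferred by Bayesian fitting of counts, and unfolding free energy was derived per protease or combined against a sequence-predicted unfolded-state K50 and a shared folded-state K50.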

[2] = folding stability dG unfold from chymotrypsin proteolysis; higher = more stable
How it was run: as §1

[3] = folding stability dG unfold (combined trypsin and chymotrypsin); higher = more stable
How it was run: as §1

Row | Sequence | folding stability dG unfold [1] [kcal/mol] | folding stability dG unfold [2] [kcal/mol] | folding stability dG unfold [3] [kcal/mol]
1 | SAGGSAGGSLTIRFPEELSPEEAVELAEGLVRELFPEDVPVTVTVVFYDPETGEELTIPAELASAGGSAGGS [r12_1051_TrMRF] | 1.49 ± 0.039 | 1.35 ± 0.025 | 1.43 ± 0.044
2 | SAGMKIKIVKIEKEEDGTIRVELEITDPNGNKYRVEAEIDLKDPNKIKIKVINEDTGEEFEIELTIKKPSAG [r5_345_TrROS_Hall] | 3.6 ± 0.23 | 5.19 ± 0.2 | 5.24 ± 0.35
3 | KIVILEPGEEAELPGVKVIPVDGLRIREVEVNGKKILVIEMSEEEIENGNEEELEKLRELAEELGADEVILS [r1_438_TrROS_Hall] | 1.13 ± 0.072 | 1.27 ± 0.062 | 1.14 ± 0.26
4 | SAGNAKEIAKKIKIRIREFFAERFGFPDVEIDSVTIKDVDPKNGRVRVNITWWWPNGRPWKHEIEIPVDSAG [r5_20_TrROS] | 2.38 ± 0.048 | 2.43 ± 0.072 | 2.43 ± 0.11
5 | SAMTKEEAKENGHIYIMVKIEVTWPNGGKREFPIFFPFPSLDEAKEQIRSFFRRMNFKVKIDDISIFPVSAG [r14_854_TrROS] | 2.98 ± 0.048 | 3.745 ± 0.027 | 3.53 ± 0.049
6 | SNIKNIKRVEIYYNPENGWMPKIKVEYPGGEREFMFPPDQAEELLNWLQQKGLPMKITDVEYHPMPPDQMSA [r9_607_TrROS] | 0.911 ± 0.086 | 1.49 ± 0.048 | 1.27 ± 0.18
7 | SAGGSASVTRMIQIPPGDPNMSIEEAIEKIKIYLPNGKPVTIEIDRIWPDPNRYFFMITIKDGKPVSAGGSA [r15_331_TrROS] | 1.21 ± 0.088 | 2.28 ± 0.13 | 1.86 ± 0.15
8 | MKIKEVKVFPLPGENTIVILVTGEFDSFYIPETGKPIPSSAKITLIEVIKVPEDSDEAEVESSLLILPDAES [r1_147_TrMRF] | 1.08 ± 0.067 | 1.46 ± 0.067 | 1.4 ± 0.16
9 | SAGGSAGGSAGGDNTKTLVLVIKVDENVTPEEIKKKLKDLGFKNVKIEKVGNYAVVTVSSAGGSAGGSAGGS [r10_868_TrMRF] | 2.58 ± 0.074 | 3.149 ± 0.03 | 2.92 ± 0.052
10 | SAGGGFDPSKLKKEKTLTLTLPGNSETFTIELYLPEDGESTVVFSYNDKNYELTITKDSITLKPVSSSAGGS [r16_711_JUSTAS] | 2.38 ± 0.13 | 3.01 ± 0.045 | 2.79 ± 0.2
11 | SAGGSAMTTVTWTFPPSTSVEEAIEALKAQLEAERNEKIEIPSISVSTTGDTITVTLPIKIEPLPASAGGSA [r15_105_JUSTAS] | 1.86 ± 0.049 | 0.327 ± 0.22 | 1.26 ± 0.14
12 | SAGGSAGGSAGSMEPVKTEELESGEVRTVSLLPDGTIKEELIKIEGEGETVETKVVPLEESAGGSAGGSAGG [r11_699_JUSTAS] | 0.745 ± 0.065 | 1.68 ± 0.1 | 1.48 ± 0.2
13 | SAGGFTIEFPLPPGESPDEIKDEIMDMVRPIADEHGFKNVKIPITNVRWQPPGRRRFTINIEIKFPGSAGGS [r8_184_TrROS] | 0.723 ± 0.16 | 0.465 ± 0.24 | 0.727 ± 0.22
14 | SAGGSAGGSAPLSLVIDFPSGPATITFLEDGTARITYTDDDKTETIPVADLLKIPADVDPRSAGGSAGGSAG [r3_256_TrMRF] | 0.0215 ± 0.099 | 0.769 ± 0.12 | 0.507 ± 0.091
15 | SAGGSAMQQLDITKTKWDPNTGTLSVTAKDPLTGEVTTYTIPRNGPTLNFPPGAELKSVETEPPPLSAGGSA [r15_959_JUSTAS] | 0.0912 ± 0.28 | -0.368 ± 0.37 | -0.0792 ± 0.27
16 | SAGNKIEIEPVNYEPMPNGYYRVTARVTIENPNNKKPWDIDVEAYYPMDPNGQPMNVDEIAKEAIKKIFSAG [r5_604_TrROS] | 0.624 ± 0.098 | 1.36 ± 0.11 | 1.07 ± 0.24
17 | SDETVELPTVYTLYFGKDGTPRYYITVTLGDGPVAMELPEVSPDVKDGDVVPVKVPSSVVTSYSVSSAPASA [r9_769_JUSTAS] | 0.671 ± 0.071 | 0.777 ± 0.096 | 0.808 ± 0.059
18 | MEIIKKLKIPDYEIVSVKTKKIGNKVIVVVVLKKEKEYYVIVAEINPETKEIKIISIKKLKENETLEDFISS [r1_383_TrMRF] | 3.2 ± 0.26 | 3.95 ± 0.11 | 3.76 ± 0.32
19 | SAGGSAGGSMVEYTFTVYDPRTGKETLFTVPSDIPFEEAKEKVEKEIRKGLPPNYTVTFTKPASAGGSAGGS [r20_213_JUSTAS] | 1.75 ± 0.035 | 1.45 ± 0.11 | 1.58 ± 0.089
20 | SAGGKKKKKVKIKIEIAIVIPEEDLSEEERKKLAEELAERLKRELAEKLGLSEDEIEEIEVTVYRLPPSAGG [r13_5_TrROS_Hall] | 1.67 ± 0.092 | 2.33 ± 0.067 | 2.04 ± 0.21
21 | SAGAKEITAEELAEIVREFAAALPPDVKEPVTVEITVPLEDGRVLVFKVTVERSPDGVKATVEVSPGASAGG [r19_220_TrMRF] | 2.4 ± 0.13 | 3.43 ± 0.037 | 3.21 ± 0.18

Row | Sequence | folding stability dG unfold [1] [kcal/mol] | folding stability dG unfold [2] [kcal/mol] | folding stability dG unfold [3] [kcal/mol]
22 | SAGGSAGGSAGGIRIEFPGMKFEIDEFDPPNGVITLRFPENGQELQIKFDSDGEITKITWSAGGSAGGSAGG [r7_553_TrROS] | 2.05 ± 0.2 | 1.94 ± 0.14 | 2.25 ± 0.28
23 | SAGGSAGGSAGGKIYYLDKDLFVIDLPDPKTGKPIKIAIGGDPNRPDEILKLAKELAESSAGGSAGGSAGGS [r10_379_TrMRF] | 0.0383 ± 0.039 | -0.398 ± 0.26 | -0.0301 ± 0.2
24 | SAGGSAGGSAMRELVKRAAKNGNPGQKVMIRPPDKRYFPITVEGNKIEPKDLPPGWEVHVISAGGSAGGSAG [r3_244_TrROS] | -0.427 ± 0.39 | -0.443 ± 0.3 | -0.37 ± 0.28
25 | SAGGLEIDTSDGNVKVTKVSTKTTVEKDPTNPDRYRIITSKEIKTEPVKPPDVKEGPPIGLNNPELLSAGGS [r16_395_JUSTAS] | 0.475 ± 0.2 | 0.418 ± 0.47 | 0.165 ± 0.49
26 | SAGGSAGGSSMSSTVEKEPDDVLIISTKVFFDTDTYSTLTTIVEVKPPLDPSNPELLARALGLLSAGGSAGG [r6_293_JUSTAS] | 1.1 ± 0.026 | 1.49 ± 0.039 | 1.3 ± 0.063
27 | SAGSPVVIKVSKVDSSGNWTLLEEIPIPPSEVSGVELVGDSLKILPPGSGGSYTFTIENSTVTVSIEESAGG [r19_408_JUSTAS] | 0.465 ± 0.038 | 1.27 ± 0.084 | 0.933 ± 0.06
28 | SAGGKMSLEDIKEVKITKISEEELKKNGTIKIEIYNKNGKLIKTIEIKIKPVKVKDKDGKEKTLEELKSAGG [r13_864_TrROS_Hall] | 0.897 ± 0.042 | 1.49 ± 0.031 | 1.29 ± 0.11
29 | SMKKPIDLIKKLGYTLTSVTKLPNGTTLITFEHPDSTVTVTVNPDGNIKITTTNPKNGTTTTTTIPVNKLSA [r9_2_JUSTAS] | 1.95 ± 0.08 | 2.31 ± 0.099 | 2.08 ± 0.15
30 | SAIEITVMSDSPEEAKEKAKEFANWLQNRMRRDGLPDMPIPIKIEVIPVPPPKPKPKRDPDDGEWKPDPSAG [r14_475_TrROS] | -0.415 ± 0.57 | 0.731 ± 0.34 | 0.487 ± 0.23
31 | SAEVEVLPFEFELPNGLRVEVHLVRLPDGTVVAPVLLVEYDPVTGEPRLSRAVAVFDPSTGKVTVLPLDSAG [r14_324_TrMRF] | 3.01 ± 0.047 | 2.993 ± 0.017 | 2.97 ± 0.042
32 | SAGGSAGGSASLDLSNATVLEEKTDPAKGLKTLTIKTPTSTLTITVEFDENGNPVKMTVFESAGGSAGGSAG [r3_5_JUSTAS] | 1.71 ± 0.037 | 2.2 ± 0.057 | 2.03 ± 0.048
33 | SAGGSAGGSAGGSQDLVKITIKLPGGEEKEITTPAEEIDKAIKELGIKKEDVEILEITEVSAGGSAGGSAGG [r7_211_JUSTAS] | 1.13 ± 0.093 | 1.56 ± 0.051 | 1.34 ± 0.24
34 | GMNLKETTVTIPLKVKSEEEAKKKAEEIANELKKKYPDIIEIKIEIKEIDKETGIVIITIKFKAKNSSVLLS [r1_52_JUSTAS] | 2.18 ± 0.33 | 1.27 ± 0.14 | 2 ± 0.55
35 | SAGGSAGGSAGMKPDDTVTYTITVPHPESGEPLAEIELTYPVGTPIEKVKEEAKILAEKISAGGSAGGSAGG [r11_516_TrMRF] | 0.515 ± 0.03 | 0.141 ± 0.27 | 0.429 ± 0.088
36 | SAGGSAGGSAGTIRIKMKDGKPMEFPLKGLPKEDLDDPEFLDWIKDWARDSGMKIDDIEISAGGSAGGSAGG [r11_467_TrROS] | -0.62 ± 0.22 | 1.09 ± 0.072 | 0.608 ± 0.14
37 | SAGGMRIRIVVPPEMSPEEIAELLKKLFPDYEIKVEVKTVKVKVKDEETGEEYEVEVLVVEIEIKEKSAGGS [r16_828_TrROS_Hall] | 3.61 ± 0.18 | 3.78 ± 0.12 | 3.74 ± 0.14
38 | SAGGSAGGSAGGGSMLTVKVPETVPEYTSTDPATGKTYNVPPSVPVEVEGSPDSFSILLSAGGSAGGSAGGS [r10_46_JUSTAS] | 1.21 ± 0.046 | 0.842 ± 0.095 | 1.01 ± 0.094
39 | SMIKPGEKIKKIKLKLENGEEVEATLVKNEDGSLVLFIKVDGEVYVFTFNPDGEIKIEKVSKEEAEKLLKSA [r9_1144_TrROS_Hall] | 2.05 ± 0.097 | 3.79 ± 0.046 | 3.4 ± 0.15
40 | SATFTLPDGREVEVVSVEYDPETNTVTVLVRDRETGELYVFTFERLPDGEWRIVSRERVRVEPGETVLVSAG [r14_13_TrROS_Hall] | 2.02 ± 0.025 | 3.235 ± 0.022 | 2.94 ± 0.07
41 | SAGGSAGGSAGGLPEDIELEVEPLEITLEDGSRVRILIARAPDPEIAAIDIEVFPPDDPKSAGGSAGGSAGG [r11_338_TrMRF] | 0.417 ± 0.11 | 0.51 ± 0.071 | 0.559 ± 0.13
42 | SAGGSAGGGMPPVVTTEISVEEVRPDERDENGNRYFLVTTTLTFPDSTVTTERWLEEEELEELLSAGGSAGG [r6_724_JUSTAS] | 1.3 ± 0.033 | 0.912 ± 0.16 | 1.09 ± 0.15
